Residue numbers refer to the chain shown, from its start.
How the values were obtained:
[1] = biological target: T1, recombinant huCD3εγ/Fc fusion protein (fusion protein heterodimer) (human); assay: ELISA on plate-coated human CD3e/g heterodimer-Fc, OD450nm, unit taken from the concentration axis
T1 construct: also called huCD3/Fc dimer; heterodimeric CD3εγ/Fc fusion protein
Method: (§1) The binding properties of the isolated murine anti-CD3 antibodies were measured with ELISA as follows: Heterodimeric CD3εγ/Fc fusion protein was coated at 1 μg/mL on 96-well plates at 4° C. overnight. Plates were washed once with washing buffer (PBS containing 0.05% Tween 20) and blocked with ELISA blocking buffer (1% BSA in PBS containing 0.05% Tween 20) at room temperature for 2 hours. Anti-CD3 antibodies were then added and incubated at 37° C. for 1 hour. Plates were washed three times with washing buffer. HRP labeled anti-mouse IgG secondary antibody (Sigma, Cat. #A0168) was added and the plates were incubated at 37° C. for 30 minutes then washed 5 times in washing buffer. 100 μl of tetramethylbenzidine (TMB) chromogenic solution was added to each well. Following color development, the reaction was stopped with 1 Normal HCl and absorbance at 450 nm was measured on a Varioskan™ LUX microplate reader (ThermoFisher Scientific). Binding signals were plotted against antibody concentration with GraphPad Prism 5.0 software and EC50s were calculated accordingly.

[2] = biological target: T2, cynoCD3εγ/Fc fusion protein (cynomolgus monkey, UniProt Q95LI5 22-117; Q95LI7 23-113); assay: ELISA on plate-coated cyno CD3e/g heterodimer-Fc, OD450nm, unit taken from the concentration axis
T2 construct: also called cynomolgus monkey CD3ε/γ heterodimer-Fc fusion protein; not shown: linker and Fc not described for the cynomolgus construct
T2 sequence (looked up) 1: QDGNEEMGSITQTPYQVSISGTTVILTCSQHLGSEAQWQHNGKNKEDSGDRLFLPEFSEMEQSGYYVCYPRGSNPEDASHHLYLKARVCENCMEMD
T2 sequence (looked up) 2: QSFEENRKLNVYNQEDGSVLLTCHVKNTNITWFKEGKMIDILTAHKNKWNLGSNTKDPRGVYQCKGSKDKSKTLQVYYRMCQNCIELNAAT
Method: as §1

[3] = biological target: T3, human CD3 on the surface of Jurkat cells (human, UniProt P07766 23-207; P09693 23-182; P04234 22-171); assay: cell binding assay, Jurkat cells
T3 construct: whole, on cells; Endogenous CD3 complex of the Jurkat T cell line; also called cell surface CD3 target on Jurkat cells; CD3-expressing Jurkat cells

[4] = biological target: T3, human CD3 on the surface of Jurkat cells; assay: flow cytometry on Jurkat cells, MFI against antibody conc. (nM)
Method: Different humanized VH and VK combinations led to humanized anti-CD3 variants with different CD3 binding affinities. The binding activity of the humanized variants of mAbCD3-001 were tested via flow cytometry with the human CD3-expressing Jurkat T cell line. 5×10⁵ Jurkat cells in FACS buffer were seeded into each well of a 96-well plate. Cells were centrifuged at 400 g for 5 minutes and supernatants were discarded. For each well, 100 μl of serially diluted antibodies were then added and mixed with the cells. After 40 minutes incubation at 4° C., plates were washed several times to remove excess antibodies. […] After another round of centrifugation and a washing step, cells were resuspended in FACS buffer for reading on a CytoFLEX Flow Cytometer (Beckman Coulter). Median Fluorescence Intensity (MFI) readouts were plotted against antibody concentration and analyzed with GraphPad Prism 5.0 software.

[5] = biological target: T4, BCMA on HEK293F-BCMA-NF-kB-luc cells (clone 1H2) (UniProt Q02223 1-184, limits assumed); assay: cell-based or functional assay
T4 sequence (looked up): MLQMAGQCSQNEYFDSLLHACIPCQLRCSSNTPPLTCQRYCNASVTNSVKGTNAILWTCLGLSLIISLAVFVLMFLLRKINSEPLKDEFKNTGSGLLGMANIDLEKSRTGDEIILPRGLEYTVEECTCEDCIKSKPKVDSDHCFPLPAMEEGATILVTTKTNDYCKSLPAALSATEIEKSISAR

[6] = biological target: T5, cynomolgus BCMA(ECD)/Fc target polypeptide (cynomolgus); assay: SPR, Biacore T200, 25 C; antibody captured on anti-mouse IgG Fc, BCMA(ECD)/Fc injected
T5 construct: extracellular domain; also called Cyno BCMA (ECD); cynoBCMA/Fc
Method: (§2) Briefly, goat anti-mouse IgG Fc antibody was directly immobilized across a biosensor chip, and antibody samples were injected over reaction matrices at a flow rate of 5 μl/min. Mouse anti-BCMA IgG test antibody was injected over the immobilized surface and captured by the immobilized anti-Fc antibodies. Human and cynomolgus BCMA(ECD)/Fc target polypeptides were then injected over the captured mouse anti-BCMA IgG surface. The association and dissociation rate constants, kₒₙ (M⁻¹s⁻¹) and koff (s⁻¹), respectively, were determined with a continuous flow rate of 30 μl/min. Rate constants were derived by making kinetic binding measurements at five different concentrations of target BCMA(ECD) polypeptide. The equilibrium dissociation constant KD (M) of the reaction between antibodies and related target proteins was then calculated from the kinetic rate constants using the formula KD=koff/kₒₙ. Kinetic constants were determined by processing and fitting the data to a 1:1 binding model using Biacore analysis software.

[7] = biological target: T6, recombinant human BCMA extracellular domain/Fc dimer (human); assay: as above
T6 construct: also called Human BCMA (ECD); human BCMA(ECD)/Fc
Method: as §2

[8] = biological target: T4, BCMA on HEK293F-BCMA-NF-kB-luc cells …; assay: cell-based or functional assay; remark: listed apart in the source
BCMA on NCI-H929 cells = biological target: T7, BCMA on NCI-H929 cells (human, UniProt Q02223 1-184); assay: cell-based or functional assay
T7 sequence (looked up): T4 sequence (looked up)

T3 sequence (P07766 23-207, chain 1 of 3): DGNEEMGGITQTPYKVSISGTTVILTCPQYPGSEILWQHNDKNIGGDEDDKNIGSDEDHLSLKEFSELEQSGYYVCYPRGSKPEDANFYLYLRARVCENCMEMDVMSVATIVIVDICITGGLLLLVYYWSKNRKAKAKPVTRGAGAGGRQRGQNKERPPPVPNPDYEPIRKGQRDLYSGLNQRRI
T3 sequence (P09693 23-182, chain 2 of 3): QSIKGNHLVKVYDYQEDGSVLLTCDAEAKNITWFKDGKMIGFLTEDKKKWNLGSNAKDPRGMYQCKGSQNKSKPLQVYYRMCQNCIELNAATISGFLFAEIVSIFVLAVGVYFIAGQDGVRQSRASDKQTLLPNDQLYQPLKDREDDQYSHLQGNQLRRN
T3 sequence (P04234 22-171, chain 3 of 3): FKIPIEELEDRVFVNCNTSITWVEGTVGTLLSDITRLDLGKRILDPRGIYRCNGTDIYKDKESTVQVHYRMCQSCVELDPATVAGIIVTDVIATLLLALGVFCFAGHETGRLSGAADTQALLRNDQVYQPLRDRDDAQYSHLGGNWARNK
T1 sequence (chain, as listed by the source limits assumed, chain 1 of 2): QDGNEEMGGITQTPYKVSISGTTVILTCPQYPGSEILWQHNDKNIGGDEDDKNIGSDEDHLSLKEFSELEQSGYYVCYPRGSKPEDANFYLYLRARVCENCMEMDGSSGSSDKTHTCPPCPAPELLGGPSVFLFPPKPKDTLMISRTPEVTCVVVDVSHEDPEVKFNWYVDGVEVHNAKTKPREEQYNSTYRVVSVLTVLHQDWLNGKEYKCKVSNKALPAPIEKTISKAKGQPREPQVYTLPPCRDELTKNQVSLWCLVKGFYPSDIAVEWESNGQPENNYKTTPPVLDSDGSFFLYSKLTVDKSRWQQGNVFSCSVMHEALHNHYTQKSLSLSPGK
T1 sequence (chain, as listed by the source limits assumed, chain 2 of 2): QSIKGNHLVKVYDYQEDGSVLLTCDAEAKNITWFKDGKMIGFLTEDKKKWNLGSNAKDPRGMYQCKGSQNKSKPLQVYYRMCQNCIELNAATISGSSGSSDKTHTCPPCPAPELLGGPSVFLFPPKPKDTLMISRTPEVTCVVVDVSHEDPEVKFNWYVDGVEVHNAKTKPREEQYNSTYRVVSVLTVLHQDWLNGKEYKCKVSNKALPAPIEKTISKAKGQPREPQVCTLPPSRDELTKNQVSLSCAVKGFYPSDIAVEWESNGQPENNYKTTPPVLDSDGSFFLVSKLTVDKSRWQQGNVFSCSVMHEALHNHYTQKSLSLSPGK

B1: mAbCD3-001 (antibody, V domains shown)
VH: QVQLQQSGPDLVKPGASVKISCKASGFSFTNYYVHWMKQRPGQGLEWIGWISPGSDNTKYNEKFKGKATLTADTSSTTAYMQLSSLTSEDSAVYYCARDDYGNYYFDYWGRGSTLTVSS
VL: DIVMSQSPSSLAVSAGEKVTMTCKSSQSLLNSRTRKNYLAWYQQKPGQSPKLLIYWASTRESGVPDRFTGSGSGTDFTLTISSVQAEDLAVYYCKQSYILRTFGGGTKLEIK
notes: Murine hybridoma monoclonal antibody
How did the EC50 [1] turn out when B1 was run?
The EC50 was 0.028 µg/mL.

What about the EC50 [2] of the same binder?
The EC50 was 0.0235 µg/mL.

Does B1 bind [3]?
Result: binds

B2: mAbCD3-002 (antibody, V domains shown)
VH: QVQLQQSGPELVKPGASVRISCKASGYTFTNYYIHWVKQRPGQGLEWIGWINLGDVNTKFNEKFKDKATLTADKSSTTAYMQLSSLTSEDSAVYFCARDGYSFYYFDFWGQGTTLTVSS
VL: B1 VL with A15V, T22S, S25A, L30F, T78I, L79F, V91I, K95I, Y98H, I99T
notes: as for B1
Which EC50 [1] does the source give for B2 here?
Its EC50 is 0.01 µg/mL.

And the EC50 [2]?
The EC50 was 0.0109 µg/mL.

Does B2 bind [3]?
Result: binds

B3: HuEM0006-01c (antibody, human IgG1, kappa, L234A L235A, V domains shown)
VH: B1 VH
VL: DIVMSQSPSSLAVSAGEKVTMTCKSSQSLLNSRTRKNYLAWYQQKPGQSPKLLIYWASTRESGVPDRFTGSGSGTDFTLTISSVQAEDLAVYYCKQSYILRTFGGGTKLEIKR
notes: also called chimeric control antibody
Does B3 bind [4]?
Result: binds

B4: mAbBCMA-003 (antibody, V domains shown)
VH: EVQLQQSGTVLARPGASVRMSCKASGYIFPNFWMHWVKQRPGQGLDWIGAFYPGNDDTYYNQKFKGKAKLTAVTSASTAYMELSSLTSEDSAVYYCARSGYYGSSDAMDYWGQGTSVTVSS
VL: DIQMTQSPASLSASVGETVTVTCGASENIYGALNWYQRKQGKSPQLLIYGATNLADGISSRFSGSGSGRQFSLKISSLLPDDVATYFCQSVLTTPWTFGGGTKLEIK
notes: Mouse anti-BCMA IgG from hybridoma
B4 was tested. Which “EC50 of inhibition of the APRIL-induced NF-kB luciferase signal in HEK293F-BCMA-NF-kB-luc cells (inhibition %), unit from the axis” value [5] did it give?
The value was 6.18 nM.

And the Kd [6]?
The Kd was 3.9 nM.

What about the koff [6] of the same binder?
The koff was 0.000236 s⁻¹.

What about the kon [6] of the same binder?
Its kon is 60600 M⁻¹ s⁻¹.

What about the Kd [7] of the same binder?
The Kd was 0.408 nM.

And the koff [7]?
The koff was 1.85e-05 s⁻¹.

And the kon [7]?
Its kon is 45400 M⁻¹ s⁻¹.

And the “EC50 of inhibition of the BAFF-induced NF-kB luciferase signal in HEK293F-BCMA-NF-kB-luc cells (inhibition %), unit from the axis” value [8]?
The value was 3.87 nM.

And the “EC50 of inhibition of BAFF-induced NF-kB phosphorylation in NCI-H929 cells (inhibition %), unit from the axis” value (BCMA on NCI-H929 cells)?
The value was 16.7 nM.
